Test results reported in patent US8071348B2, “Protein tyrosine phosphatase substrate-trapping double mutant and uses thereof” (Albert Einstein College of Medicine of Yeshiva University, priority 2002, dated 2011).
[ ]: non-standard residue; d: D form. F2Pmp = N[C@@H](Cc1ccc(C(F)(F)P(=O)(O)O)cc1)C(=O)O

Legend:
[1] = molecular target: T1, EGFR^988-998 peptide, DADEpYLIPQQG (Homo sapiens, UniProt P18031, D181A/Q262A); test: Kinetic constants for PTP1B-catalyzed hydrolysis of pTyr-containing EGFR988-998 peptide; type: biochemical; conditions: EGFR988-998 peptide as substrate
T1 construct: The catalytic domain of PTP1B (residues 1 to 321) was used for in vitro study; made in house; host or cells: E. coli (pT7-7 plasmids)
T1 sequence (P18031 1-321 D181A/Q262A): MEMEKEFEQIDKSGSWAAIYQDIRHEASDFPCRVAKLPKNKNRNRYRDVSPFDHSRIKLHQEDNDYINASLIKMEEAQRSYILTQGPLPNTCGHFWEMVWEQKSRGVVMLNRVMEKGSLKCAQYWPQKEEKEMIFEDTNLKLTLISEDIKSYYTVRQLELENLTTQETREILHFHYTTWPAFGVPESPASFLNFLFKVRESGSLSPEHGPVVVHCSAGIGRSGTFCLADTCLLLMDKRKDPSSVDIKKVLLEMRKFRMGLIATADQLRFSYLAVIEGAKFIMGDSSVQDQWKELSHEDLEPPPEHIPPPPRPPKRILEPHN
In short: (§1)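 PTP1B catalytic domain (residues 1–321), wild-type or mutant, expressed in E. coli. Continuous assay at 25° C., pH 7.0, in 50 mM 3,3-dimethylglutarate with 1 mM EDTA (ionic strength 0.15 M). Dephosphorylation followed by absorbance increase at 282 nm or fluorescence at 305 nm to obtain kcat and Km.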

[2] = test system: EGFR^988-998 peptide, DADEpYLIPQQG; test: as above; type: biochemical; conditions: EGFR988-998 peptide as substrate; 25° C. and pH 7.0
In short: as §1

[3] = molecular target: T2, Ac-Asp-Ala-Asp-Glu-F2Pmp-Leu-NH2 (Homo sapiens, UniProt P18031, D181A/Q262A); test: Isothermal titration calorimetry, binding of PTP1B and mutants to F2Pmp peptide; conditions: ITC, pH 7.0, ionic strength 0.15 M, 25° C.; read-out: dissociation constant, Kd
T2 construct: The catalytic domain of PTP1B (residues 1 to 321) was used for in vitro study; made in house; host or cells: E. coli (pT7-7 plasmids)
T2 sequence (P18031 1-321 D181A/Q262A): T1 sequence (P18031 1-321 D181A/Q262A)

[4] = molecular target: T3, EGFR 988-998 peptide DADEpYLIPQQG
T3 chain: DADEXLIPQQG

[5] = molecular target: T4, Ac-Asp-Ala-Asp-Glu-F2Pmp-Leu-NH2; test: ITC, 25 C, pH 7.0
T4 construct: Synthetic hexapeptide printed in three-letter code; also called F2Pmp-containing peptide; non-hydrolyzable substrate analog
T4 peptide: Ac-DADE[F2Pmp]L-NH2
Experimental: All isothermal titration calorimetry experiments were performed using an MCS Isothermal Titration Calorimetry System from Microcal Inc. (Northampton, Mass.). Experiments at pH 7.0 were conducted at 25° C., in 50 mM 3,3-dimethylglutarate buffer containing 1 mM DTT. The ionic strength of the buffer was adjusted to 0.15 M by addition of NaCl. Protein concentration in the calorimeter cell was 27-85 µM, while the ligand concentration in the syringe was 0.37-1 mM.
A typical titration curve and binding isotherm for the binding of D181A/Q262A to Ac-Asp-Ala-Asp-Glu-F_2Pmp-Leu-NH_2 is shown in FIG. 3. From curve-fitting of the binding isotherms, the stoichiometry for the binding of the peptide to D181A/Q262A was determined to be 1:1.

[6] = Kinetic constants for PTP1B-catalyzed hydrolysis of pNPP; type: biochemical; conditions: pNPP as substrate
Excerpt: The catalytic domain of PTP1B (residues 1 to 321) was used for in vitro study. PTP1B mutants, C215S, D181A, and Q262A, were described previously (9, 25, 26). PTP1B double mutants, D181A/C215S and C215S/Q262A, were generated by PCR reactions, according to the standard procedure of the Quick-Change™ site-directed mutagenesis kit (Stratagene), using pT7-7/PTP1B/C215S as a template. PTP1B double mutants, D181A/C215E and D181A/Q262A, were generated by similar PCR procedures, using pT7-7/PTP1B/D181A as a template. The recombinant wild-type and mutant PTP1Bs were expressed in E. coli, and purified to homogeneity as described (25, 27). Protein concentration was determined from absorbance measurement at 280 nm, using an absorbance coefficient of 1.24 for 1 mg/ml PTP1B.
PTP activity was assayed at 25° C. and pH 7.0, in a reaction mixture (0.2 ml) containing pNPP concentrations ranging from 0.2 to 5 Km. The following buffered solution was used for activity measurements: pH 7.0, 50 mM 3,3-dimethylglutarate, 1 mM EDTA; the ionic strength was 0.15 M, as adjusted by addition of NaCl. Initial rate measurements for the enzyme-catalyzed hydrolysis of pNPP were conducted as previously described (26). Michaelis-Menten kinetic parameters were determined from a direct fit of the data to the Michaelis-Menten equation, using the nonlinear regression program, KINETASYST (Intellikinetics, State College, Pa.).

B1: PTP1B/D181A/Q262A, catalytic domain (residues 1 to 321) (enzyme, human, UniProt P18031 1-321, looked up)
chain: T1 sequence (P18031 1-321 D181A/Q262A)
notes: range 1-321; Used in vitro (ITC, kinetics); also called PTP1B substrate-trapping double mutant
With B1 the “kcat, fold lower than D181A” value [1] was 24 fold, the Km [2] was 51 ± 4 µM and the kcat [2] was “(2.7 ± 0.1) × 10^−3 s^−”. The Kd [3] was 6.8 nM, the Km (hydrolysis of the EGFR 988-998 peptide, 25 C, pH 7.0) [4] was 51 µM and the “fold higher affinity than the D181A mutant” value [5] was roughly 6 fold. For the same molecule, the “fold lower Kd than wild-type PTP1B and the C215S mutant” value [5] was roughly 30 fold, the “fold decrease in Km relative to D181A” value [6] was 33 fold and the “fold decrease in kcat relative to D181A” value [6] was 11 fold. The Km ([6]; 25° C. and pH 7.0) was 2.4 ± 0.5 µM and the kcat ([6]; 25° C. and pH 7.0) was “(2.8 ± 0.1) × 10^−3 s^−1”.
